Earlier results, collected in patent US7930157B2, “Computational method and apparatus for predicting polypeptide aggregation or solubility” (Cambridge University Technical Services Ltd., priority 2003, dated 2011).
Read-outs that look alike come from different tables or passages of the source. Where no end group is shown, it is not given here.

Experiments:
[1] = for hydrophobicity: neutral pH, based on partition coefficients from water to octanol
[2] = for charge: neutral pH
[3] = normalised from 0 (high β-sheet propensity) to 1 (low); glycine from theoretical calculations
[4] = experimental aggregation rate of mutant relative to wild type; growth phase only
[5] = compared to the human calcitonin sequence
[6] = pH lower than 6.0, histidine positively charged
[7] = τ obtained using T1 (nucleation time)
[8] = τ obtained using T2 (half time of aggregation)

In the case of N[C@@H](CCC(=O)O)C(=O)O [Glu (E), Glu], the hydrophobicity [1] is listed as 0.696 kcal/mol.
For N[C@@H](Cc1c[nH]cn1)C(=O)O [His (H), His], the “hydrophobicity (value in brackets)” value [1, 6] is given as 0.686 kcal/mol and the “charge (value in brackets)” value [2, 6] is given as “+1”.
In the case of NCCCC[C@H](N)C(=O)O [Lys (K), Lys], the hydrophobicity [1] is listed as 0.662 kcal/mol, the charge [2] is listed as “+1” and the β-sheet propensity [3] is listed as 0.34.
In the case of N[C@@H](Cc1c[nH]c2ccccc12)C(=O)O [Trp (W), Trp], the hydrophobicity [1] is listed as -0.509 kcal/mol, the charge [2] is listed as 0 and the β-sheet propensity [3] is listed as 0.24.
In the case of “F23A: single-point mutation F23A of amylin (islet amyloid polypeptide), ref. 11 (KCNTATCATQRLANFLVHSSNNAGAILSSTNVGSNTY; ends and bridges not checked; cysteine pairing not given here; UniProt P10997 34-70, looked up, variant F23A)”, the “observed ln (νmut/νwt)” value [4] is given as −2.65.
In the case of “G24A: single-point mutation G24A of amylin (islet amyloid polypeptide), ref. 11 (KCNTATCATQRLANFLVHSSNNFAAILSSTNVGSNTY; ends and bridges not checked; cysteine pairing not given here; UniProt P10997 34-70, looked up, variant G24A)”, the “observed ln (νmut/νwt)” value [4] is given as −0.03.
For “I26A: single-point mutation I26A of amylin (islet amyloid polypeptide), ref. 11 (KCNTATCATQRLANFLVHSSNNFGAALSSTNVGSNTY; ends and bridges not checked; cysteine pairing not given here; UniProt P10997 34-70, looked up, variant I26A)”, the “observed ln (νmut/νwt)” value [4] is given as −2.39.
In the case of “L27A: single-point mutation L27A of amylin (islet amyloid polypeptide), ref. 11 (KCNTATCATQRLANFLVHSSNNFGAIASSTNVGSNTY; ends and bridges not checked; cysteine pairing not given here; UniProt P10997 34-70, looked up, variant L27A)”, the “observed ln (νmut/νwt)” value [4] is listed as −0.93.
For “N22A: single-point mutation N22A of amylin (islet amyloid polypeptide), ref. 11 (KCNTATCATQRLANFLVHSSNAFGAILSSTNVGSNTY; ends and bridges not checked; cysteine pairing not given here; UniProt P10997 34-70, looked up, variant N22A)”, the “observed ln (νmut/νwt)” value [4] is listed as 0.69.
For “S20G: single-point mutation S20G of amylin, ref. 12 (KCNTATCATQRLANFLVHSGNNFGAILSSTNVGSNTY; ends and bridges not checked; cysteine pairing not given here; UniProt P10997 34-70, looked up, variant S20G)”, the “observed ln (νmut/νwt)” value [4] is listed as 1.01.
For “SEQ ID NO 14: calcitonin sequence reported in Zurdo & Dobson (WO 02/083734), 6 modified positions when compared to the human sequence (CGNLSTCMLGKLTQELRKLHTFPQTAIGVGAP; ends and bridges not checked; cysteine pairing not given here)”, the “Observed (τmut/τwt)” value [5, 7] is given as 300, the “observed ln (νmut/νwt)” value [5, 7] is given as −5.71 and the “Observed (τmut/τwt)” value [5, 8] is given as 100. The “observed ln (νmut/νwt)” value [5, 8] was −4.61.
